In paper PMC4459817, “Vasculotide reduces endothelial permeability and tumor cell extravasation in the absence of binding to or agonistic activation of Tie2” (EMBO Molecular Medicine, 2015):

B1: recombinant human Ang1 (rhAng1) (ligand, UniProt Q15389 16-498, looked up)
chain: HIGCSNQRRSPENSGRRYNRIQHGQCAYTFILPEHDGNCRESTTDQYNTNALQRDAPHVEPDFSSQKLQHLEHVMENYTQWLQKLENYIVENMKSEMAQIQQNAVQNHTATMLEIGTSLLSQTAEQTRKLTDVETQVLNQTSRLEIQLLENSLSTYKLEKQLLQQTNEILKIHEKNSLLEHKILEMEGKHKEELDTLKEEKENLQGLVTRQTYIIQELEKQLNRATTNNSVLQKQQLELMDTVHNLVNLCTKEGVLLKGGKREEEKPFRDCADVYQAGFNKSGIYTIYINNMPEPKKVFCNMDVNGGGWTVIQHREDGSLDFQRGWKEYKMGFGNPSGEYWLGNEFIFAITSQRQYMLRIELMDWEGNRAYSQYDRFHIGNEKQNYRLYLKGHTGTAGKQSSLILHGADFSTKDADNDNCMCKCALMLTGGWWFDACGPSNLNGMFYTAGQNHGKLNGIKWHYFKGPSYSLRSTTMMIRPLDF
notes: angiopoietin-1, human, recombinant; also called angiopoietin-1; source: bought: R&D Systems (named for the Boyden chamber experiments)

Target: T1, human Tie2-Fc (hTie2-Fc) (Homo sapiens, UniProt Q02763)
T1 construct: Purified human or mouse Tie2-Fc (i.e., Fc-conjugated extracellular domains of Tie2); purchased R&D Systems 313-TI-100
T1 sequence (Q02763 23-748 limits assumed): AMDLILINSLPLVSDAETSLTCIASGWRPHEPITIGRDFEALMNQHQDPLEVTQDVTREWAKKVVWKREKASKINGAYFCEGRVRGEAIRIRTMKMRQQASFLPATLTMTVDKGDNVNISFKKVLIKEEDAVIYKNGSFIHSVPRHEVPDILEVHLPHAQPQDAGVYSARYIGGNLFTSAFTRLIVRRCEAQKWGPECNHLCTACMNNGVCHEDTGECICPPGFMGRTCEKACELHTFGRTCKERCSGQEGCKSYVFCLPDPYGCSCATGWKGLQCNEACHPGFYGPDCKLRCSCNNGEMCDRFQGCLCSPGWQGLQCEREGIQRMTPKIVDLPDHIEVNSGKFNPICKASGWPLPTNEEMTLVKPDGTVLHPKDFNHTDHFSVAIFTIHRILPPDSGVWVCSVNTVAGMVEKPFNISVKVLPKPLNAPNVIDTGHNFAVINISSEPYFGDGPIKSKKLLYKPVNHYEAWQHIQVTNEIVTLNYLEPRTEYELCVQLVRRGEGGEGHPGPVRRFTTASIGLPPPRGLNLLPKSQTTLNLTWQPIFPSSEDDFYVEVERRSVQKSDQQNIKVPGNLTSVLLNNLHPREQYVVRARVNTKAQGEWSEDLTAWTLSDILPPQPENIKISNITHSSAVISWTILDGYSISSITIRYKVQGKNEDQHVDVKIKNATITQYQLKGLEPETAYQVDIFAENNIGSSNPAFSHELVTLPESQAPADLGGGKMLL
Assay: SPR binding to human Tie2-Fc
Details: 37°C; for binding to Tie2-Fc: human Tie2-Fc, 0.625–10 nM, pH 7.4, Fig9C
Excerpt: To better understand the difficulties we had in observing Tie2 activation by VT, we sought to characterize the binding affinity and kinetics of VT to Tie2. Purified human or mouse Tie2-Fc (i.e., Fc-conjugated extracellular domains of Tie2) were first coupled to protein A sepharose beads for pull-down experiments (Fig9A and B) or immobilized on a Biacore CM5 sensor chip for surface plasmon resonance (SPR) experiments (Fig9C and Supplementary Fig S3).
Figure 9 Binding of Vasculotide vs. Ang1 variants to the extracellular domain of Tie2 • A–B Pull-down assay. Input ligands—rhAng1 (A) and VT (B)—were incubated with either protein A sepharose beads only, bead-conjugated mouse Tie2-Fc (mTie2), or bead-conjugated human Tie2-Fc (hTie2). […] The ‘unbound’ fraction is 7% of residual/free ligands remaining in the supernatant. • C Quantitative kinetics analysis by SPR. All analytes were run at increasing concentrations of 0.625, 1.25, 2.5, 5, and 10 nM, at 37°C and pH 7.4. […] Source data are available online for this figure. […]
9. Tie2 Receptor-Binding Assays
Vasculotide (VT) was manufactured by Bachem UK Ltd. T7c (CHHHRHSF) was synthesized by Genscript (Piscataway, NJ, USA). PEG-Cys consists of a single cysteine reacted to each of the 4 arms of PEG-maleimide (Sunbright PTE-100MA, NOF Corporation, Tokyo, Japan). BowAng1 (Ang1-Fd-Fc-Fd) was made and provided by Regeneron Pharmaceuticals, Inc. (Tarrytown, NY, USA). COMP-Ang1 was purified in the Kerbel lab from serum-free culture media conditioned by an engineered CHO cell line provided by Dr. Gou Young Koh (KAIST), according to published protocols (Hwang et al, 2008).
Recombinant human Angiopoietin-1 (rhAng1) and Vascular Endothelial Growth Factor ( rhVEGF) were […]
purchased from R&D Systems. […]
(structural/molecular weight control for VT), and 40 μL of supernatant (7% of residual/unbound ligand) – were similarly boiled in SDS sample buffer. Ang1 samples and controls were resolved by 7.5% polyacrylamide gel electrophoresis (PAGE), electroblotted onto PVDF membranes, and probed with an anti-Ang1 antibody (R&D Sytems, AF923; diluted 1:2,000 in TBS supplemented with 7% BSA and 0.1% Tween-20) at 75kDa (reduced monomers). VT samples and controls were resolved by 17% PAGE, blotted onto PVDF membranes, and probed with an anti-PEG antibody (Silver Lake Research, CH2074; diluted 1:4,000 in TBS supplemented with 7% BSA and 0.05% CHAPS*) at higher “apparent” molecular weights than the expected 14 and 10kDa due to their polymeric nature and large hydrodynamic radii (Zheng et al, 2007). *Note: non-ionic, PEO-based, polymer detergents were avoided at these steps as they cross-react with the anti-PEG antibody used for detecting VT.
Surface Plasmon Resonance (SPR) Experiments: The binding of analytes – VT, T7c peptide, PEG-Cys, rhAng1, COMP-Ang1, BowAng1, and rhVEGF – to the extracellular domain of Tie2 were […]
investigated by SPR using a Biacore T200 Instrument (GE Healthcare). For qualitative binding analysis, mTie2-Fc was dissolved in 10mM acetate buffer (pH 4.5) and immobilized at high density onto a CM5 sensor chip using amine coupling chemistry as described by the manufacturer to a response of 11,500RU.
Binding analysis were performed by exposure of immobilized mTie2-Fc to the analytes diluted in HBS-EP (0.01M HEPES pH 7.4, 0.15M NaCl, 3mM EDTA, 0.005% v/v Tween-20), which was supplemented with 1mg/mL carboxymethyl dextran (NSB reducer, GE Healthcare) to reduce non-specific binding to the sensor chip. Analytes were injected at 30μL/min (association time 120s, dissociation time 120s) at 37 °C, and the chip surface was regenerated each cycle by a 60s pulse of 4M MgCl2. To quantitatively determine the kinetic properties of the interaction (KD, kd, ka) and avoid mass transport limitations, mTie2-Fc and hTie2-Fc were immobilized at low density (1,000-1,200RU) onto separate flow cells of the CM5 chip using amine coupling chemistry. Kinetic analyses were performed using a single-cycle kinetic […]

[1] = Biacore T200, single-cycle kinetics, 1:1 model, 0.625–10 nM analyte, pH 7.4 (HBS-EP), Fig9C

Molecule	binding to Tie2-Fc (listed as VT)	Off-rate, Kd [1] [s⁻¹]	On-rate, Ka [1] [M⁻¹ s⁻¹]	binding to Tie2-Fc
CHHHRHSF [Vasculotide, 4-armed maleimide-functionalized polyethylene glycol (PEG) backbone to link together four cysteine-capped T7 peptides, that is, CHHHRHSF]	no binding to Tie2-Fc was detectable			
B1		0.00029	1.4e+06	bound strongly
